Assay [1] deals with Rat IL-23R_huFC (rat). Description: rat ELISA vs IL-23. A general note: ELISA stands for enzyme-linked immunosorbent assay.
The target in assay [2] is T1, IL23R_huFC (human, UniProt Q5VWK5 24-353).
T1 sequence (looked up): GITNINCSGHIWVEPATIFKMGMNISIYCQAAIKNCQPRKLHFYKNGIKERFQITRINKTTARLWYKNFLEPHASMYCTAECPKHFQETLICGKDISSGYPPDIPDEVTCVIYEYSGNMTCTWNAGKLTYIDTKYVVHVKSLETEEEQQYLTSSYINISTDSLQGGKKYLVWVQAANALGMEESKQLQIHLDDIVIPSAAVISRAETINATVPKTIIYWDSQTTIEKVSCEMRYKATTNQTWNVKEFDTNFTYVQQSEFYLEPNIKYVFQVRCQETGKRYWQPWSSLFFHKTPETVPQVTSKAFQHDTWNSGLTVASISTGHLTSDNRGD
Description: human ELISA vs IL-23.

The target in assay [3] is T1, IL23R_huFC. Nature of the assay: human ELISA vs IL-23. This is another data set of the same source.
Assay [4] has as its target T2, IL-23R on human cells (IL-23R-expressing DB cells; human NK cells) (human, UniProt Q5VWK5 24-629).
T2 sequence (looked up): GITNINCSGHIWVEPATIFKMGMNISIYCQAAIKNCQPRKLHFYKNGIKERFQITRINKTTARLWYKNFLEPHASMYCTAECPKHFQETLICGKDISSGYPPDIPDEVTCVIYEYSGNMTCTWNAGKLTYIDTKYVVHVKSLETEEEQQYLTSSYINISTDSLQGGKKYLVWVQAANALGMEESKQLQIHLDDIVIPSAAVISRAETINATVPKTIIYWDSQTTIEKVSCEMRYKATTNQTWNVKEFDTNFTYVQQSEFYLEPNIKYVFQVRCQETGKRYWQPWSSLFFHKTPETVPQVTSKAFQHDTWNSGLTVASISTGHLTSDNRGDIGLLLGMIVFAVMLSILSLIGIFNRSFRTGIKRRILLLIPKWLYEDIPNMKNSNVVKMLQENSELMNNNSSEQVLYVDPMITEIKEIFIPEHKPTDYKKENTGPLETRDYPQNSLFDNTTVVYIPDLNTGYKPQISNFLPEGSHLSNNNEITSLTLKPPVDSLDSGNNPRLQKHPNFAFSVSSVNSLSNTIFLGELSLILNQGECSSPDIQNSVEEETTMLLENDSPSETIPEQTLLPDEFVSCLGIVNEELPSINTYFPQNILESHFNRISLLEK
Description: cell-based or functional assay.

Assay [5] deals with Rat IL-23R_huFC (rat). Nature of the assay: rat ELISA vs IL-23. This is another data set of the same source.

Read-outs that look alike come from different tables or passages of the source. *1 amine or outer side, *2 acyl side, *3 side chain or, on linkers, in order; H or OH if unused. Bridges are numbered along the chain shown (N, C = ends). Primed or numbered codes have the meaning given here. [ ]: non-standard residue; d: D form. Phe(4-OMe)(3) = O-methyl-L-tyrosine (4-methoxy-L-phenylalanine), COc1ccc(C[C@H](N[*:1])C(=O)[*:2])cc1; Phe(4-OMe) = 4-methoxy-L-phenylalanine (O-methyl-L-tyrosine), COc1ccc(C[C@H](N[*:1])C(=O)[*:2])cc1; Phe(4-OMe)(5) = O-methyl-L-tyrosine (4-methoxy-Phe), COc1ccc(C[C@H](N[*:1])C(=O)[*:2])cc1; Phe(4-guanidino) = N=C(N)Nc1ccc(C[C@H](N)C(=O)O)cc1; Phe(4-N3) = [N-]=[N+]=Nc1ccc(C[C@H](N)C(=O)O)cc1; Phe(4-CONH2) = NC(=O)c1ccc(C[C@H](N)C(=O)O)cc1; Phe(4-Br) = N[C@@H](Cc1ccc(Br)cc1)C(=O)O; Phe(4-NH2) = Nc1ccc(C[C@H](N)C(=O)O)cc1; 1Nal = N[C@@H](Cc1cccc2ccccc12)C(=O)O; 2Nal = N[C@@H](Cc1ccc2ccccc2c1)C(=O)O; AEF = NCCOc1ccc(C[C@H](N)C(=O)O)cc1; αMeL = CC(C)C[C@](C)(N)C(=O)O; αMeK = C[C@](N)(CCCCN)C(=O)O; Abu = CC[C@H](N)C(=O)O

B1: Ac-Cyclo-[[Abu]-QTWQC]-[Phe(4-CONH2)]-[2-Nal][α-MeLys]-[Lys(Ac)]NG-NH2 (peptide)
peptide: Ac-[Abu]QTWQC[Phe(4-CONH2)][2Nal][αMeK]K(Ac)NG-NH2
modifications: thioether 1-6
In general, IC50 refers to the concentration needed to halve the response being measured. Low values mean greater potency in that assay, high ones weaker potency in that assay. B1 registered an IC50 with Rat IL-23R_huFC [1] of 25 to 100 nM.

B2: Ac-Cyclo-[[Abu]-QTWQC]-[Phe(4-guanidino)]-W-[α-MeLys]-ENG-NH2 (peptide)
peptide: Ac-[Abu]QTWQC[Phe(4-guanidino)]W[αMeK]ENG-NH2
modifications: thioether 1-6
Regarding B2, the IC50 with Rat IL-23R_huFC [1] lay within 25 to 100 nM.

B3: Ac-Cyclo-[[Abu]-QTWQC]-[2-Nal]-[2-Nal]-[α-MeLys]-[Lys(Ac)]-NG-NH2 (peptide)
peptide: Ac-[Abu]QTWQC[2Nal][2Nal][αMeK]K(Ac)NG-NH2
modifications: thioether 1-6
Take B3: the IC50 with IL23R_huFC [2] and with Rat IL-23R_huFC [1] was 25 to 100 nM each time.

B4: Ac-(D)Glu-[Cyclo-[[Abu]-QTWQC]-[Phe[4-(2-aminoethoxy)]]-[2-Nal]-[α-MeLys]-ENN-NH2 (peptide)
peptide: Ac-[dE][Abu]QTWQC[AEF][2Nal][αMeK]ENN-NH2
modifications: thioether 2-7
Regarding B4, the IC50 with IL23R_huFC [3] and in the assay with Rat IL-23R_huFC [5] was under 10 nM each time. Besides, the “pStat3 HTRF IC50” value in assay [4] is under 10 nM.

B5: Ac-Cyclo-[[Abu]-QTWQC]-[Phe(4-NH2)]-W-[α-MeLys]-ENG-NH2 (peptide)
peptide: Ac-[Abu]QTWQC[Phe(4-NH2)]W[αMeK]ENG-NH2
modifications: thioether 1-6
On to B5, for which, in the assay with Rat IL-23R_huFC [1], the IC50 was in the range of 25 to 100 nM.

B6: Ac-Cyclo-[[Abu]-QTWQC]-[Phe(4-Br)] W-[α-MeLys]-ENG-NH2 (peptide)
peptide: Ac-[Abu]QTWQC[Phe(4-Br)]W[αMeK]ENG-NH2
modifications: thioether 1-6
As to B6, in the assay with Rat IL-23R_huFC [1], the IC50 lay within 25 to 100 nM.

B7: Ac-Cyclo-[[Abu]-QTWQC]-[Phe-4-N3]-[2-Nal]-[α-MeLys]-[Lys(Ac)]-NG-NH2 (peptide)
peptide: Ac-[Abu]QTWQC[Phe(4-N3)][2Nal][αMeK]K(Ac)NG-NH2
modifications: thioether 1-6
For the molecule B7, the IC50 with Rat IL-23R_huFC [1] is 25 to 100 nM.

B8: Ac-Cyclo-[[Abu]-QTWQC]-[Phe(4-OMe)]-W-[α-MeOrn]-ENG-NH2 (peptide)
peptide: XQTWQCFWXENG
modifications: as bracketed in name; thioether cyclo
As for B8, the IC50 in the assay with IL23R_huFC [2] and with Rat IL-23R_huFC [1] was 25 to 100 nM throughout. For the same molecule, in assay [4], the “pStat3 HTRF IC50” value was under 10 nM.

B9: Ac-Cyclo-[[Abu]-QTWQC-YW-[α-MeOrn]-[Lys(Ac)]-NG-NH2 (peptide)
peptide: XQTWQCYWXKNG
modifications: as bracketed in name; thioether cyclo
In the assay with Rat IL-23R_huFC [1], B9 yielded an IC50 of 25 to 100 nM.

B10: Ac-Cyclo-[[Abu]-QTWQC]-[Phe(4-OMe)]-[2-Nal][α-MeLys]-[Lys(Ac)]-NGE-NH2 (peptide)
peptide: Ac-[Abu]QTWQC[Phe(4-OMe)(3)][2Nal][αMeK]K(Ac)NGE-NH2
modifications: thioether 1-6
For B10, the IC50 with IL23R_huFC [2] and with Rat IL-23R_huFC [1] was 25 to 100 nM each time. In addition, the “pStat3 HTRF IC50” value in assay [4] is under 10 nM.

B11: Ac-Cyclo-[[Abu]-STWQC]-[Phe(4-OMe)]-[2-Nal][α-MeLys]-[Lys(Ac)]-NGE-NH2 (peptide)
peptide: Ac-[Abu]STWQC[Phe(4-OMe)(5)][2Nal][αMeK]K(Ac)NGE-NH2
modifications: thioether 1-6
With B11, the IC50 in the assay with IL23R_huFC [2] and in the assay with Rat IL-23R_huFC [1] was 25 to 100 nM throughout.

B12: Ac-Cyclo-[[Abu]-QTWQC]-[Phe(4-OMe)]-[1-Nal][α-MeLys]-[Lys(Ac)]-NG-NH2 (peptide)
peptide: Ac-[Abu]QTWQC[Phe(4-OMe)][1Nal][αMeK]K(Ac)NG-NH2
modifications: thioether 1-6
B12 returned an IC50 with Rat IL-23R_huFC [1] of 25 to 100 nM.

B13: Ac-Cyclo-[[Abu]-QTWQC]-[Phe(4-OMe)]-[1-Nal]-[α-MeLys]-ENG-NH2 (peptide)
peptide: Ac-[Abu]QTWQC[Phe(4-OMe)][1Nal][αMeK]ENG-NH2
modifications: thioether 1-6
Turning to B13, the IC50 with IL23R_huFC [2] and with Rat IL-23R_huFC [1] was 25 to 100 nM each time.

B14: Ac-Cyclo-[[Abu]-QTWQC]-[Phe[4-(2-aminoethoxy)]]-[2-Nal]-[α-MeLeu]-[Lys(Ac)]-NN-NH2 (peptide)
peptide: Ac-[Abu]QTWQC[AEF][2Nal][αMeL]K(Ac)NN-NH2
modifications: thioether 1-6
Take B14: the IC50 with IL23R_huFC [3] and in the assay with Rat IL-23R_huFC [5] was under 10 nM each time. Besides, the “pStat3 HTRF IC50” value in assay [4] is under 10 nM.

(Values after US20190300590A1 (PROTAGONIST THERAPEUTICS, published 2019).)
